For 94 variants, protein stability index results are on record in the supplement of paper PMC10567573.

To fix the notation:
B1: PRIM1 (parent)
chain: CCSSADICPKCWTLMTMAIRIIDR
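Also: lentivirally expressed fusions sorted by FACS into six bins by GFP to DsRed ratio, PSI derived from sequencing read proportions per bin multiplied by bin number.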

The variants in this data set derive from B1. The data set can be described thus: protein stability index of a GFP-peptide fusion (GPS, HEK-293T) (PSI 1-6); higher = more stable. The note with it: c terminus: a fixed tail appended.
As for CCSSADIAPKCWTLMTMAIRIIDR [C8A], the protein stability index was determined as 3.21.
Consider CCSSADISPKCWTLMTMAIRIIDR [C8S], for which the protein stability index worked out at 1.54.
The result for CCSSADIRPKCWTLMTMAIRIIDR [C8R] reads 3.94.
For the variant CCSSADACPKCWTLMTMAIRIIDR [I7A], the protein stability index is 1.87.
Consider CCSSADPCPKCWTLMTMAIRIIDR [I7P], for which the protein stability index was determined as 2.07.
For the variant CCSSADRCPKCWTLMTMAIRIIDR [I7R], the protein stability index was found to be 1.85.
Then CCSSADECPKCWTLMTMAIRIIDR [I7E], with 2.21.
The result for CCSSADFCPKCWTLMTMAIRIIDR [I7F] reads 2.63; that for CCSSADYCPKCWTLMTMAIRIIDR [I7Y], 1.57; that for CCSSADVCPKCWTLMTMAIRIIDR [I7V], 1.88.
The result for CCSSADLCPKCWTLMTMAIRIIDR [I7L] reads 2.56; that for CCSSADKCPKCWTLMTMAIRIIDR [I7K], 2.65.
As for CCSSADHCPKCWTLMTMAIRIIDR [I7H], the protein stability index was determined as 1.91.
Then CCSSADICPKCWTLWTMAIRIIDR [M15W], with 1.98; and CCSSADICPKCWTLETMAIRIIDR [M15E], with 2.01.
The result for CCSSADICPKCWTLPTMAIRIIDR [M15P] reads 2.13.
Then CCSSADICPKCWTLFTMAIRIIDR [M15F], with 1.47.
Consider CCSSADICPKCWTLKTMAIRIIDR [M15K], for which the protein stability index worked out at 2.45.
The result for CCSSADICPKCWTLSTMAIRIIDR [M15S] reads 1.95.
The result for CCSSADICPKCWTLITMAIRIIDR [M15I] reads 2.87.
The result for CCSSADICPKCWTLGTMAIRIIDR [M15G] reads 1.69.
For CCSSADICPKCWTLLTMAIRIIDR [M15L], the protein stability index stood at 1.59.
Turning to CCSSADICPKCWTLYTMAIRIIDR [M15Y], the protein stability index came out at 1.63.
The result for CCSSADICPKCWTIMTMAIRIIDR [L14I] reads 1.75; that for CCSSADICPKCWTSMTMAIRIIDR [L14S], 2.39; that for CCSSADICPKCWTGMTMAIRIIDR [L14G], 1.27.
Then CCSSADICPKCWTDMTMAIRIIDR [L14D], with 1.95.
Turning to CCSSADICPKCWTCMTMAIRIIDR [L14C], the protein stability index worked out at 1.8.
As to CCSSADICPKCWTMMTMAIRIIDR [L14M], the protein stability index worked out at 1.55.
Then CCSSADICPKCWTEMTMAIRIIDR [L14E], with 2.06; and CCSSADICPKCWTVMTMAIRIIDR [L14V], with 1.8.
The result for CCSSADICPKCWTKMTMAIRIIDR [L14K] reads 2; that for CCSSADICPKCWTLMTMAIRIIDN [R24N], 1.8.
The result for CCSSADICPKCWTLMTMAIRIIDG [R24G] reads 1.81.
Turning to CCSSADICPKCWTLMTMAIRIIDQ [R24Q], the protein stability index worked out at 1.52.
Then CCSSADICPKCWTLMTMAIRIIDL [R24L], with 1.91; and CCSSADICPKCWTLMTMAIRIIDP [R24P], with 3.32; and CCSSADICPKCWTLMTMAIRIIDD [R24D], with 2.09.
Then CCSSADICPKCWTLMTMAIRIIDY [R24Y], with 1.78; and CCSSADICPKCWTLMTMAIRIIDI [R24I], with 1.69; and CCSSADICPKCWTLMTQAIRIIDR [M17Q], with 2.54.
For the variant CCSSADICPKCWTLMTAAIRIIDR [M17A], the protein stability index amounted to 2.03.
The result for CCSSADICPKCWTLMTLAIRIIDR [M17L] reads 1.74.
Then CCSSADICPKCWTLMTFAIRIIDR [M17F], with 1.94; and CCSSADICPKCWTLMTIAIRIIDR [M17I], with 1.94; and CCSSADICPKCWTLMTPAIRIIDR [M17P], with 2.29.
The result for CCSSADICPKCWTLMTYAIRIIDR [M17Y] reads 2.15; that for CCSSADICPKCWTLMTHAIRIIDR [M17H], 2.38; that for CCSSADICPKCWTLMTDAIRIIDR [M17D], 2.33.
Take CCSSADICPKCWTLMTSAIRIIDR [M17S]: the protein stability index stood at 2.95.
Then CCSSADICPKCYTLMTMAIRIIDR [W12Y], with 2.48.
The result for CCSSADICPKCHTLMTMAIRIIDR [W12H] reads 2.19; that for CCSSADICPKCMTLMTMAIRIIDR [W12M], 2.02.
Then CCSSADICPKCSTLMTMAIRIIDR [W12S], with 2.23.
CCSSADICPKCVTLMTMAIRIIDR [W12V]: the protein stability index was determined as 1.23.
The result for CCSSADICPKCCTLMTMAIRIIDR [W12C] reads 1.83; that for CCSSADICPKCETLMTMAIRIIDR [W12E], 2.05; that for CCSSADICPKCWTLMTMEIRIIDR [A18E], 1.45.
Then CCSSADICPKCWTLMTMDIRIIDR [A18D], with 2.39; and CCSSADICPKCWTLMTMRIRIIDR [A18R], with 1.94.
Turning to CCSSADICPKCWTLMTMFIRIIDR [A18F], the protein stability index turned out to be 1.64.
The result for CCSSADICPKCWTLMTMTIRIIDR [A18T] reads 1.56.
The result for CCSSADICPKCWTLMTMLIRIIDR [A18L] reads 2.3; that for CCSSADICPKCWTLMTMPIRIIDR [A18P], 2.1; that for CCSSADICPKCWTLMTMIIRIIDR [A18I], 1.79.
The result for CCSSADICPKCWTLMTMVIRIIDR [A18V] reads 2.18; that for CCSSADICPKCWTLMTMCIRIIDR [A18C], 2.45; that for CCSSADICPKCWTLMTMMIRIIDR [A18M], 1.24.
Turning to CCSSADICPKCWTLMTMAIRLIDR [I21L], the protein stability index was determined as 1.49.
The result for CCSSADICPKCWTLMTMAIRAIDR [I21A] reads 2.2; that for CCSSADICPKCWTLMTMAIRRIDR [I21R], 2.75; that for CCSSADICPKCWTLMTMAIRQIDR [I21Q], 2.05.
The result for CCSSADICPKCWTLMTMAIRTIDR [I21T] reads 1.68; that for CCSSADICPKCWTLMTMAIRVIDR [I21V], 1.67; that for CCSSADICPKCWTLMTMAIRKIDR [I21K], 2.35.
Then CCSSADICPKCWTLMTMAIRDIDR [I21D], with 2.68.
For the variant CCSSADICPKCWTLMTMAIRFIDR [I21F], the protein stability index came to 1.39.
Consider CCSSADICPKCWTLMTMAIREIDR [I21E], for which the protein stability index amounted to 1.58.
Then CCSPADICPKCWTLMTMAIRIIDR [S4P], with 1.67.
The result for CCSDADICPKCWTLMTMAIRIIDR [S4D] reads 1.48; that for CCSGADICPKCWTLMTMAIRIIDR [S4G], 1.85.
Consider CCSKADICPKCWTLMTMAIRIIDR [S4K], for which the protein stability index was found to be 2.2.
The result for CCSTADICPKCWTLMTMAIRIIDR [S4T] reads 1.63; that for CCSLADICPKCWTLMTMAIRIIDR [S4L], 2.24.
The result for CCSVADICPKCWTLMTMAIRIIDR [S4V] reads 2.19; that for CCSCADICPKCWTLMTMAIRIIDR [S4C], 2.72; that for CCSMADICPKCWTLMTMAIRIIDR [S4M], 2.97.
Then CCSAADICPKCWTLMTMAIRIIDR [S4A], with 1.87; and QCSSADICPKCWTLMTMAIRIIDR [C1Q], with 1.85.
As for MCSSADICPKCWTLMTMAIRIIDR [C1M], the protein stability index turned out to be 2.5.
Then PCSSADICPKCWTLMTMAIRIIDR [C1P], with 1.78; and FCSSADICPKCWTLMTMAIRIIDR [C1F], with 1.5; and ICSSADICPKCWTLMTMAIRIIDR [C1I], with 1.53.
On to TCSSADICPKCWTLMTMAIRIIDR [C1T], for which the protein stability index came out at 2.12.
